From a protein production outcome set (Wang et al. 2014)

experiment: label from the status in PepcDB records

| Sequence | protein production |
| --- | --- |
| MIKERPKFNWLHLLIFIVVVEAIGSLSAWLAGDIKAVYNGLNLPVLSPPDGLFGIVWPILYALIAIAGYLVFQQATTHRDRLMDATLFGIQLLLNFIWSIIFFSQSAYWWGLVIIIVLDLVVLLCILRFYRSSRLAAILMVPYLVWICFATYLTLGVALLN | failed |
| MIKHESSQPLRVAVAQCRIDWEDKHANLRRMERLAEETAGMADVLFFPEMMTTGFSMNVQALAEPFEEGETIMSLKRVTARHGLALSATMAVRENGKFYNRAYFVTPEGEVFHQDKRHLFRVGGEHEVMTPAQERRIFNY | failed |
| MIKKARKFIPFFLIGSLLAEDNGWYMSVGYQIGGTQQFINNKQLLENQNIINSVTQSAINIAGPTTGLITLSSQTVIDALGYGVSNTVGNQLEGISNILNQIGKRKDFYSSRQISSISQQIIGLKGSSDPLKAHSSQITAKLLSNTQSAFDQGIALSTNIISSINSLNPSNNTQEVKKQLQNTAQSMTELLQQIEHSITKTTSTTYAQSLLSNLTDAVNASSNNTAYVSALVNALNTLGVGVFPTTTTTHVVLNPPGQVVFYPTNSILGSTSSNSNNQQQYNNTLLMNTLQGTLSANTQNNPNGCANQVQCLEQFIQNLAPLAATPTSNNQANQQVQAIAQKLQSVAINTLDNNAINNTTYNLNNLHNALNFQAYESTIEQYNNALKQISWISFTEPKNLLKNTSNNYQIGTVTNAQGQNISAYDCMTATGSLSSNASSGISCSATSSTSSTNSFDNSLVATSKVQTINGKEQIGVNSFNLVSQVWSVYNSLKTSEENLQKNANILCANGTQSGTSSCNSSSGGLSISGNAQLQNILSPTSGTTTNTQAKSNAPKLKAMVVVNNEEEAKTANLAQSSGTTTQSPNSTVMGALNTVLQNVSNFQQSIQNAFQNQESNIQAWANAIYNTNGSQSQEMTPNNNQDLRIQLRANFYQLINTINQQVPTDMNALINQSQQTQQTSGSASNNNACASGMSGSNGNWCYQQWSDSKAYYSGLQSALGYQTQATTQSGSNGGNSITYNVQQITLTSNGLLNQIITNLKSVNGGNGASGTGSGNGTSQINTAYQMLTDASDGKLGTYSSSSGSNNGYTPCNSTNGSNKTSGNNCYEPNKQQNATTATATTDSNLQKVYNDAQKIANIIASSGNNKGVENGLKQFFEALKNNSSSLSNLCGNGSSGSSGTTCSGWLINLLGAIPTNGVSDTNNLINLLTEFIKTAGFIQNNDSSVSTSLTSAFQAITSAISQGFQALQNDISPNAILTLLQEITSNTTTIQSFSQTLRQLLGDKTFFMAQQKLIDAMINARNQVQNAQNQANNYGSQPVLSQYAAAKSTQHGMSNGLGVGLGYKYFFGKARKLGLRHYFFFDYGFSEIGLANQSVKANIFAYGVGTDFLWNLFRRTYNTKALNFGLFAGVQLGGATWLSSLRQQIIDNWGSANDIHSTNFQVALNFGVRTNFAEFKRFAKKFHNQGVISQKSVEFGIKVPLINQAYLNSAGADVSYRRLYTFYINYIMGF | failed |
| MIKKIHRWLPLLVLIGLLVLFFSLHLDKYLSFNALRENHALLIAWTQTHYFIAPLIFIVFYTTAVAISIPGAVLLTLTGGFLFGVFWGVLFVVISATLGATILFFAVRTALGDWFAQKASGWIERMRQGFQHNAFSYLVTLRLIPLFPFWAVNIVPALLNIRAKTFITATFIGIIPGTTVYVMVGNGLSQIFAANQTPNLGIIFELQILGPLLALAVLSLMPVLYQFSTRKHQNHHSFSDISRVINCDLAIIGGGAGGLSLASGCSQLGLKVVLVESGKMGGDCLNYGCIPSKSLLAAAKTFYYAKHATHFGVHTEAIKINFQQVMQHVHQIIDNISEHDSVQRFESLGVQVIKQVGKFLNPDTLQAGDSIIKAKRFVVATGSSPFIPPIPGLDAVSYFTNETIFDLKEQPEHLIVIGGGPIGCELAQAFAMLGSKVTLLEGLNLLPKDDPDCVAVLRTQMKSMSIVIHEQIEITQINSHPDTGISVCFEFQNTQFTITASHLLIATGRRANVKPLDLEKAGVKLTSKGVEVNKYLQTSNKKIYALGDVTGLYQFTHMASYQASIVLRNIVFKLPSKVDYRAIPWVTYTDPELAHVGIGVSDALKHPDAQIIEWPFVDNDRAQTERSLNGKIKIITDKKARILGVTIVGPHAGELILPWVMAIREKKNLRSFTDVIVPYPTLSEISKRVAGSFYAPKLFSNKTRMLVRWLQKIG | failed |
| MIKLQLKLQGSVSVQVNAGPLAYARAFLDDTNTKRYPDNKVKLLKEVFRQFVEACGQALAVNERLIKEDQLEY | failed |
| MIKLSSITAHILDIWHRRNSRSYIAHLRSLGIRIGDGCIFRDPLTTRIDVSRPALVSIGSNVDMNTYFQILTHDWASFVFRNKYHDFVNSSGRVEIGSNIYIGTNVIVLRGVTIGDNCVIGAGSVVTHDIPANSVAVGAPCRVVCSLDEYYQKRKVKGLQEAVEHVKAFQKNFGRDPLPHELYEEFIYFVDASNVEEYERQGVPVRSQLSIAYGDWLSTHKAKFSSYDDFIQYVNQKMNETAES | failed |
| MIKQVNPHFKEFLFDWNQKFQFLVGGYGSSKSYHVALKIVLKLLREKRTALVIREVYDTHRDSTFSLFDELVSDLKLDHIVRCVSSPMQIRFSNGSRIIFKGMDKPAKLKSINNISLIWIEECSEVKYEGFKELLGRLRHPTLPLHMILSTNPVGEDNWTFKHFFKDDREKRFVLDDKELYEKRIIVSNDTYYHHSTADDNLFLPESYVQQLEELKEYDPDLYRIARKGHFGVNGIRVLPQFEERPHEEVMTAISNINRPLKRVGMDFGFVESYNAVVRVAVDHEKKYLYIYWEYYKNGLTDDKTAEELKEFAETKELIKADSAEPKTIRYFQQHGFNMVGARKYQGSRLQYTKKIKRFRKIICSDRCENTIYELKPLAYATDKLGNIIEDEFTIDPHTLSAIWYALDDYEVTDLKEESKGRPQRSRPGRR | not failed |
| MIKSSLPPILTSQIGPDSIELRLLVAADLEYFNGHFPEQAVLPGVTQLDWAVRLGCEHFGYSAAVANLEVLKFQQLILPGQEVTLVISHNATKEKLTFAYSDGDHRYASGRISFASKQDDGAAQ | failed |
| MIKVAESRTSWVASVFGLAALYVLGTVTPLEDIDSHLGGVNVTNLLQAIFALLAIFFFNDSVRRLANVPVVRWTYYAPLLSIPVMIASFSLIADKAPTAADFIDTRMDQLATAVYSGTYMFALLFTVLRIIYMLRHNAKGPYATFSAGLMVVAVAVSCHIAYVVLYYFSPWDDFARAIGTWFDRLFYIGLTVTAAGWLILFLSKQLPRLRLWMIDALWLTAMRMRVNADRSRVSPAWDLFNETLENGVYKSLIVLHNYERVNLMEFPESVQGRISHIEAKLDAQT | failed |
| MILATYFDGRTSRAQPVRLAVEQGEAVLFDPEGVPVRRAPLSALRVSERVKHAPRLVTFEDGAFCEIADPAEQQALNALLHRTGYREGAVVRAQNSWRLALGALALTLAALVLGYRYGLPWGAKVLAGMVPQRVEAQLGHASLAAFDQHWLEPSKLPQAQQARIRARFAALRAPDATHAYTIAFRDAGKLGANAFALPGGDIIVTDALVRLVGEGDGLMGVLAHEAGHVEYRHGLRQLIQSSAIGATAALLFGDISTILAGVPATMLTLRYSRDYERDADRYASRMLQSNGLSVAAFADVLQALEDSHGGARGTGSGAGRKEEDRDDASGFFSSHPLTRERIETLRRFDHTHGGSDAD | failed |
| MILDEKNRKNLVFLILQFFDEEGYEESLHLLEQDSGVFFDFSYLSNAILNGNWKDADDYLSAFTSPEANTFSRKMFFGLFKSGGSEAVKIFSKDLRRIPVLKDDSFDDLVEVIAETCCVDKAPGRAKLCVDLHKLAESNPSLRGKLDFPSLNKSALLALISLLCPNCSRRKGGLKEDLICLILQFLYEAKYKNTLHKLEQETKVFFNLNYLAEVMKLGEYGKAEEYLGAFTNWEDNKYSKAMFLELQKLICLQSTEWEVATPSGSLDNMSLKIKLHASVAMLAKKNPVLKDELKFPSMEKSRLLTLVKQTMDWWTCNNTSSLENVPVVSYLCGTPSSMKFFFKKTVPRKKKPNEIKDPSQCNALVLPDCFSEEKIARLTYSPSGDYILALAEDATHKLWTWSSSQNEFCKPRLHQPQSGKTMENEMATSVQKSTSCFAVKGSYLFSTSGGKIAVFDLKNFEKVASFGSPTPMATYFIFIPGDLLAVGLDDGSIFIHCLSSRKVKEKLEGHDQKITCLAFSRCFNVLVSSDSDGKLCLWSTKSWVKLTSKNSTRKFCNRSNLESTSLVTHIQFDPYQIELLVVHDGWIGLYEVRTLDCRLQWIPDASDPAITSATYSSDGEIIYVGFRCGSIKIVDSKTFMTLCQINLTSFTQLSTSNISLEVYPTVVAAHPSHPNQISAGLSNGKVIVLQPLWSGGWGEAAPLEDNGDYSNDSDHSY | failed |
| MILIRLEPGMDLMEEMRAAFSEGVVVTGIGSLHRVRIRTADESELTVEGPLEILSLQGTISPDGVHIHIAVADSEGRVTGGHLRGDSPVRTTAEIAVIPYQGVLRRVMDRRTGYRELLVLE | failed |
